Reference: US12545899B2, “Luciferase enzymes for use with thermostable luciferins in bioluminescent assays” (Promega Corporation, priority 2018, dated 2026)

B1: ATG-3674: SEQ ID NO: 25; H244W+T344A+I396K+S193A+N228D+L305F+S306P (protein)
chain: MADKNILYGPEPFYPLEDGTAGEQMFDALSRYAAIPGCIALTNAHTKENVLYEEFLKLSCRLAESFKKYGLKQNDTIAVCSENSLQFFLPVIASLYLGIIVAPVNDKYIERELIHSLGIVKPRIVFCSKNTFQKVLNVKSKLKSIETIIILDLNEDLGGYQCLNNFISQNSDSNLDVKKFKPYSFNRDDQVAAIMFSSGTTGLPKGVMLTHKNIVARFSIAKDPTFGDAINPTSAILTVIPFHWGFGMMTTLGYFTCGFRVVLMHTFEEKLFLQSLQDYKVESTLLVPTLMAFLAKSALVEKYDFPHLKEIASGGAPLSKEIGEMVKKRFKLNFVRQGYGLTEATSAVLITPKGDAKPGSTGKIVPLHAVKVVDPTTGKILGPNEPGELYFKGPMKMKGYYNNEEATKAIIDNDGWLRSGDIAYYDNDGHFYIVDRLKSLIKYKGYQVAPAEIEGILLQHPYIVDAGVTGIPDEAAGELPAAGVVVQTGKYLNEQIVQDYVASQVSTAKWLRGGVKFLDEIPKGSTGKIDRKVLRQMLEKHTNGHHHHHHHH
B2: ATG-2671: luciferase enzyme variant ATG-2671 (G245A+L285I+G315A) (protein)
chain: MADKNILYGPEPFYPLEDGTAGEQMFDALSRYAAIPGCIALTNAHTKENVLYEEFLKLSCRLAESFKKYGLKQNDTIAVCSENSLQFFLPVIASLYLGIIVAPVNDKYIERELIHSLGIVKPRIVFCSKNTFQKVLNVKSKLKSIETIIILDLNEDLGGYQCLNNFISQNSDSNLDVKKFKPYSFNRDDQVASIMFSSGTTGLPKGVMLTHKNIVARFSIAKDPTFGNAINPTSAILTVIPFHHAFGMMTTLGYFTCGFRVVLMHTFEEKLFLQSLQDYKVESTILVPTLMAFLAKSALCEKYDLSHLKEIASGAAPLSKEIGEMVKKRFKLNFVRQGYGLTETTSAVLITPKGDAKPGSTGKIVPLHAVKVVDPTTGKILGPNEPGELYFKGPMIMKGYYNNEEATKAIIDNDGWLRSGDIAYYDNDGHFYIVDRLKSLIKYKGYQVAPAEIEGILLQHPYIVDAGVTGIPDEAAGELPAAGVVVQTGKYLNEQIVQDYVASQVSTAKWLRGGVKFLDEIPKGSTGKIDRKVLRQMLEKHTNGHHHHHHHH

Assays:
[1] = Km for ATP with saturating substrate (FIG. 18); type: biochemical; details: with CS0333, relative to Ppe variant with luciferin
Experimental: Reagent composition included 1 mM substrate, 100 fM-100 uM ATP (10-fold dilutions), and 0.1 mg/ml enzyme. […] Thus, the combination of the ATG-3674 luciferase enzyme variant with the thermostable CS0333 luciferin analog substrate will be effective in ATP detection/quantification assays.

[2] = Activity of ATG-2671 with luciferin analogs; type: biochemical; details: data not shown
Experimental: FIG. 15 includes representative graphs of kinetic activity of the luciferase enzyme variant ATG-2671 with D/L-luciferin. […] The composition was incubated for 3 mins and read on GloMax® Multi+platform.

Row | Molecule | Km values for ATP [1] | activity with luciferin analogs [2]
1 | B1 | equivalent to improved Km values for ATP | –
2 | B2 | – | not active
